The record followed here is PMC3540977 (Peptides, 2012).

The data set has as its system bovine brain microvessel endothelial cells (BBMECs). Description: Metabolism of Dyn A 1–17 in the presence of BBMECs. Type of data set: in vitro ADME. The settings on record: incubation with bovine brain microvessel endothelial cells, LC-MS/MS.

In the case of Dynorphin A 1–17 [Dyn A 1–17], the “metabolite identified in the presence of BBMECs” value was “Dyn A 1–6 is identified as a metabolite”.
